In paper PMC5693851:

B1: cystatin F: N6162SN115Q (protein)
parent chain: MRAAGTLLAFCCLVLSTTGGPSPDTCSQDLNSRVKPGFPKTIKTNDPGVLQAARYSVEKFNNCTNDMFLFKESRITRALVQIVKGLKYMLEVEIGRTTCKKNQHLRLDDCDFQTNHTLKQTLSCYSEVWVVPWLQHFEVPVLRCH
B2: cystatin F: N6162S (protein)
parent chain: MRAAGTLLAFCCLVLSTTGGPSPDTCSQDLNSRVKPGFPKTIKTNDPGVLQAARYSVEKFNNCTNDMFLFKESRITRALVQIVKGLKYMLEVEIGRTTCKKNQHLRLDDCDFQTNHTLKQTLSCYSEVWVVPWLQHFEVPVLRCH

Columns and labels:
Conditions in all cases: glycan lost; control: wild type
[1] = non-reducing western blot of culture medium
[2] = non-reducing western blot of recipient cell lysates
[3] = non-reducing western blot of culture medium, HeLa/Hek293
[4] = conditioned medium, western blot of recipient cell lysates
[5] = immunofluorescence, endo/lysosomal (LAMP-1) vs Golgin-97 colocalisation
[6] = fluorogenic substrate assays, lysates of transfected or conditioned HeLa

| Protein | oligomerisation [1] | other: proteolytic processing (dimer to monomer conversion) [2] | expression_or_secretion [3] | other: uptake by recipient cells [4] | localisation_or_trafficking [5] | other: inhibition of intracellular peptidases [6] |
| --- | --- | --- | --- | --- | --- | --- |
| B1 | no change | abolishes | no change | decreases | decreases | abolishes |
| B2 | no change | decreases | no change | decreases | decreases | decreases |
